Data from US20160058829A1, “ANTI-FIBROTIC PEPTIDES AND THEIR USE IN METHODS FOR TREATING DISEASES AND DISORDERS CHARACTERIZED BY FIBROSIS” (Thrasos Innovation, Inc., priority 2011, published 2016).
Entries after “also recorded” stand apart in the source; their conditions may differ. Like-named read-outs stand apart in the source and are kept apart here. Blank lines part the entries; values can stand above or below the molecule they belong to. Positions of bridges follow the written chain, without caps; N, C: chain ends.

Key:
ALK2 = biological target: T1, ALK2 (Homo sapiens, UniProt Q04771); test: BMP type I receptor binding, ALK2 ECD
T1 sequence (Q04771 21-123 limits assumed): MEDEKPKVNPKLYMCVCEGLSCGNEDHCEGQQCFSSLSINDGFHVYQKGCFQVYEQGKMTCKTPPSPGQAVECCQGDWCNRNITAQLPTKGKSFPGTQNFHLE
Experimental: (§1) FIG. 31 provides a table indicating a comparison between THR-123 (SEQ ID NO: 1) and BMP-7 for binding to Type I and Type II BMP receptors. Like BMP-7, THR-123 binds to both ALK2 and ALK3 (type I) and BMPR-II (type II) BMP receptors. However, BMP-7, but not THR-123 binds to ALK6 (type I) receptor.
First, specific affinity of the extra cellular domains (ECD) of the several type I receptors of BMPs to THR-123 was analyzed. Binding of cold BMP7 to immobilized receptor ECDs was determined by competition with ^125I-labeled BMP7 and analyzed by Scatchard analysis to determine effective dissociation constants of BMP7 for each of the receptor ECDs. To obtain an estimate of the effective dissociation constant of THR-123 for a particular receptor ECD, the dissociation constant for cold BMP7 was multiplied by the ratio of the ED50 of THR-123 to the ED50 for cold BMP7.

BMPR-II = biological target: T2, BMPR-II (Homo sapiens, UniProt Q13873); test: BMP type II receptor binding
T2 sequence (Q13873 27-1038): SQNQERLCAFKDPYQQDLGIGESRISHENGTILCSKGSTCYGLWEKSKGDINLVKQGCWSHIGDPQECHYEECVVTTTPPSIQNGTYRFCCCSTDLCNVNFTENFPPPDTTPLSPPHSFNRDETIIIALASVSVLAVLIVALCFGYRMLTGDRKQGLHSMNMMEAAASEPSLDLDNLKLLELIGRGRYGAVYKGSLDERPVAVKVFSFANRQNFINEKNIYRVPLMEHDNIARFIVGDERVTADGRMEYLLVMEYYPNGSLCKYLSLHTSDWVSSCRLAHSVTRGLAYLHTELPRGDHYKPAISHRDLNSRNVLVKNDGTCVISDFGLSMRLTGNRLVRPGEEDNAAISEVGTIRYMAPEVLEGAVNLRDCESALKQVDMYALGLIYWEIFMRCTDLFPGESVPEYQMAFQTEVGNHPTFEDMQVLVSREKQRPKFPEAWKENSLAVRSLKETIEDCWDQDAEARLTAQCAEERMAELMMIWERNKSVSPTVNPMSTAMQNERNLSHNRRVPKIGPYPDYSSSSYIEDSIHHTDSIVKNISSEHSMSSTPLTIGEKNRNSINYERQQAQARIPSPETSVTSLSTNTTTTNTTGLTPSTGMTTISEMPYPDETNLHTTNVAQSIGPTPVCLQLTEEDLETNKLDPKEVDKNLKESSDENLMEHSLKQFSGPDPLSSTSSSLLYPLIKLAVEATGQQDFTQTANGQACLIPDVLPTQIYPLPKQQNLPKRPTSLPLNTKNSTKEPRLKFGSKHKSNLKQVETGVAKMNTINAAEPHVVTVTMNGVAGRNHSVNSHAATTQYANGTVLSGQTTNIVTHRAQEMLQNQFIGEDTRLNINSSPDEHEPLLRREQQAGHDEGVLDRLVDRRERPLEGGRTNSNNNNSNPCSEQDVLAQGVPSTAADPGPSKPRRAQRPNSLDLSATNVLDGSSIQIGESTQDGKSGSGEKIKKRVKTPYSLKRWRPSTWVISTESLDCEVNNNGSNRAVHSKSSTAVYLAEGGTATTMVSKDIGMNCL
From the text: as §1

NP-1 cells = test: Hypoxia-induced apoptosis in NP-1 cells (Annexin V); assay type: cell-based; conditions: 2.5% O2 24 h; BMP-7 1 μg/ml, THR-123 10 μM
Experimental: FIG. 49A-FIG. 49D THR-123 inhibits Hypoxia-induced apoptosis in NP-1 cells. NP-1 cells are incubated with hypoxia (2.5% O2) for 24 h in the presence of indicated molecules. Apoptosis was analyzed by Annexin V labeling (Roche). Representative merged picture (Green: Annexin V and bright field image) of cells treated with hypoxia only (FIG. 49A), hypoxia+BMP-7 (1 μg/ml) FIG. 49(B), hypoxia+THR-123 (10 μM) (FIG. 49C) and hypoxia+ctrl peptide (FIG. 49D).

Molecule: (H)-CYFDDSSNVLCKKYRS-(OH) (H-CYFDDSSNVLCKKYRS-OH; disulfide 1-11; SMILES CC(C)C[C@@H]1NC(=O)[C@H](C(C)C)NC(=O)[C@H](CC(N)=O)NC(=O)[C@H](CO)NC(=O)[C@H](CO)NC(=O)[C@H](CC(=O)O)NC(=O)[C@H](CC(=O)O)NC(=O)[C@H](Cc2ccccc2)NC(=O)[C@H](Cc2ccc(O)cc2)NC(=O)[C@@H](N)CSSC[C@@H](C(=O)N[C@@H](CCCCN)C(=O)N[C@@H](CCCCN)C(=O)N[C@@H](Cc2ccc(O)cc2)C(=O)N[C@@H](CCCNC(=N)N)C(=O)N[C@@H](CO)C(=O)O)NC1=O) [SEQ ID NO: 1]
binding to ALK2 (ALK2; listed as THR-123): to a small extent; also recorded: binds
binding to BMPR-II (BMPR-II): binds
hypoxia-induced apoptosis (NP-1 cells): decreased apoptosis

binding to ALK2 (ALK2): binds
binding to BMPR-II (BMPR-II): binds
B1: BMP-7: bone morphogenetic protein-7; recombinant human BMP7, positive control (protein)
chain: STGSKQRSQNRSKTPKNQEALRMANVAENSSSDQRQACKKHELYVSFRDLGWQDWIIAPEGYAAYYCEGECAFPLNSYMNATNHAIVQTLVHFINPETVPKPCCAPTQLNAISVLYFDDSSNVILKKYRNMVVRACGCH
hypoxia-induced apoptosis (NP-1 cells): decreased apoptosis
